This note sets out measurements from paper PMC4267639, “The Mtr4 ratchet helix and arch domain both function to promote RNA unwinding”.

Holding throughout (assay): fluorescence anisotropy; 0.5 mM MgCl2; FA: 40 mM MOPS pH 6.5, 100 mM NaCl, 0.5 mM MgCl2, 5% glycerol, 0.01% NP-40 substitute, 2 mM DTT, 60 nM RNA, 30 C; EMSA conditions not in material
What all share (conditions): protein: recombinant; tags: vector pET151/D-TOPO; label: 3' fluorescein on R16; 3' overhang 6 nt (UAAAAA) on R22A, other end blunt; 16 bp
On the technique in general: Fluorescence polarisation rises when a labelled molecule tumbles more slowly, as on binding a larger partner.

One data set concerns the target T1, Mtr4 R1030A (Saccharomyces cerevisiae, UniProt P47047 1-1073, R1030A).
T1 sequence: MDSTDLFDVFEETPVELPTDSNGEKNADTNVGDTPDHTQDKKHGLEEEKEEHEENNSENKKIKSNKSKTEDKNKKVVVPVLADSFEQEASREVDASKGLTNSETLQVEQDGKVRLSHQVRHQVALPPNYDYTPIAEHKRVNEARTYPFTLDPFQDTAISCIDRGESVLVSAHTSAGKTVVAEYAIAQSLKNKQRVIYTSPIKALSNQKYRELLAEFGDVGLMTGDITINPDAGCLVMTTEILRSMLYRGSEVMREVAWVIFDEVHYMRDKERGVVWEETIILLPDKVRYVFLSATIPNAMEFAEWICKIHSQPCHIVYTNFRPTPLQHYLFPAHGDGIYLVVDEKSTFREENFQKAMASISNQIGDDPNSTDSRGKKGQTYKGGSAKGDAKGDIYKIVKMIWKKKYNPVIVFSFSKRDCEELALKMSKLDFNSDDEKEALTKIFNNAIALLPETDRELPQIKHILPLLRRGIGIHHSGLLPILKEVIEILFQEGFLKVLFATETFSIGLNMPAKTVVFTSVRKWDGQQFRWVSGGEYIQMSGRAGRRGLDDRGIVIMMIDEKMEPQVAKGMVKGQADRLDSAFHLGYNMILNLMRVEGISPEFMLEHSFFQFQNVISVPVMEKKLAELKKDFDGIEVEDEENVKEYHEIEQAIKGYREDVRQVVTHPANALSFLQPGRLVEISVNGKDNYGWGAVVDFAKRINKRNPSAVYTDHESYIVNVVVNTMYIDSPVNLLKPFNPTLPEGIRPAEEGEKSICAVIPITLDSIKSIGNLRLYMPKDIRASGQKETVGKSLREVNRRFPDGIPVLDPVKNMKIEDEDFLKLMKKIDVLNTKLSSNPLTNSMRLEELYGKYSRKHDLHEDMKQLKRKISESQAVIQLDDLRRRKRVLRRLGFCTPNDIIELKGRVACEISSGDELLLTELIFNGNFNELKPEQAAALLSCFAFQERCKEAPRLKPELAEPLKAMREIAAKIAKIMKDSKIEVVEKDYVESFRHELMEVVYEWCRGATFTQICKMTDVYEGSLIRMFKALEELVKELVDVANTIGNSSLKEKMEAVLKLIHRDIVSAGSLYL

The next data set deals with T2, Mtr4 E1033A (Saccharomyces cerevisiae, UniProt P47047 1-1073, E1033A).
T2 sequence: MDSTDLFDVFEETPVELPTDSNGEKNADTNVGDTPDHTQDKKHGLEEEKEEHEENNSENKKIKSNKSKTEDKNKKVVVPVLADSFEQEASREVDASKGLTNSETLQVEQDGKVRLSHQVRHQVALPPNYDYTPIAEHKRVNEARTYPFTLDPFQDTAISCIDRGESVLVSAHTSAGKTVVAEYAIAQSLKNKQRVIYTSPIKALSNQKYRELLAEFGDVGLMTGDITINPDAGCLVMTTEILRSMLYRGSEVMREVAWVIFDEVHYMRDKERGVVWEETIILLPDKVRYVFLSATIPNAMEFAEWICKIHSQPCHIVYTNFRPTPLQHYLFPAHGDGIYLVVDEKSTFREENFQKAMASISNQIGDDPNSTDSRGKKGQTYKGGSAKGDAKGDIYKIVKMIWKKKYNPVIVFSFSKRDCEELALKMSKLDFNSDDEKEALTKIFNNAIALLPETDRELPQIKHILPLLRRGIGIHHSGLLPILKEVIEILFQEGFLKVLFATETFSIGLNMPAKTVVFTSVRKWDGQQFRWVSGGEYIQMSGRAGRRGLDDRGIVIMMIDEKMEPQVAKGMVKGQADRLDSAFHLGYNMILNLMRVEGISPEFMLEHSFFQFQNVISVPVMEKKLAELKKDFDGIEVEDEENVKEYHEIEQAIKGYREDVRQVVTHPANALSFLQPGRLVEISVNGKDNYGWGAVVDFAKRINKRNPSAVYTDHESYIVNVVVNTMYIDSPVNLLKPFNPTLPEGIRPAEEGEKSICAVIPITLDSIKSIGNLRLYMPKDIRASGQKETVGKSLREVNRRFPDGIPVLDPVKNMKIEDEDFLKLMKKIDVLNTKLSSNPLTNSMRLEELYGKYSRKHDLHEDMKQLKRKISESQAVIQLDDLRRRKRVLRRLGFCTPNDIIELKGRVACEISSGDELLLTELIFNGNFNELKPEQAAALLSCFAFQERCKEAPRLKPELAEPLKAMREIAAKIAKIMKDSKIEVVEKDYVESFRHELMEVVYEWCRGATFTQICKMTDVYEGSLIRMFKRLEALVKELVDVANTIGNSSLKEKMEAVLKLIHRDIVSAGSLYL

The target in the next data set is T3, Mtr4 WT (Saccharomyces cerevisiae, UniProt P47047).
T3 sequence: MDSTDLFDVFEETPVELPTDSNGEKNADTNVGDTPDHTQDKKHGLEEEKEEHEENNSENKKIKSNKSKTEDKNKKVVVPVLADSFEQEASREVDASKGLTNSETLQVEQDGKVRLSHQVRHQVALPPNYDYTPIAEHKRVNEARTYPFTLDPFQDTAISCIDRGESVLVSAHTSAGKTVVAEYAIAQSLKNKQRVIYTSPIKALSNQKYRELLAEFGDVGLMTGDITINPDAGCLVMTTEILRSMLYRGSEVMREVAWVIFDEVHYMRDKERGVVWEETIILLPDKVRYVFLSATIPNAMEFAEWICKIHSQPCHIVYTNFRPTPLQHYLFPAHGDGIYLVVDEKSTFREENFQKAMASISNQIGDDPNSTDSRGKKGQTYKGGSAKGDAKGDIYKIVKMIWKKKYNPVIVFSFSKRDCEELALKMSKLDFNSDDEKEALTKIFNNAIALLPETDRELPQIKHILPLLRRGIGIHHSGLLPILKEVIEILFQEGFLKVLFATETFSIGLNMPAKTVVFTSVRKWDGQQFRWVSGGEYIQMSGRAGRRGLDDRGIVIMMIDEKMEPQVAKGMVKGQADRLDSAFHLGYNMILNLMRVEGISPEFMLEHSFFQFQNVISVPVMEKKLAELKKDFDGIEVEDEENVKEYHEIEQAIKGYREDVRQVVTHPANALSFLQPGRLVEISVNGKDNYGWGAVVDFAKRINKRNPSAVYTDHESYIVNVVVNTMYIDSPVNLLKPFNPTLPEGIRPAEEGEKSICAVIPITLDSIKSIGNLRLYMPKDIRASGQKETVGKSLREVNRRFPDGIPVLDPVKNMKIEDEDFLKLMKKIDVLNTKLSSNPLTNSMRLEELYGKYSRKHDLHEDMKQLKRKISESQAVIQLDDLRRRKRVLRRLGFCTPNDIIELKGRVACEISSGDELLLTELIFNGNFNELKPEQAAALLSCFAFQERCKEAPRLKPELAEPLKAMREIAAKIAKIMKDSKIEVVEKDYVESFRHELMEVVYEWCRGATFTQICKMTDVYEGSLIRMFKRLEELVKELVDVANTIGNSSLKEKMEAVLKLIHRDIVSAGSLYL

B1: poly(A) substrate R22A/R16, fluorescein (dsRNA)
RNA 1: GCGUCUUUACGGUGCUUAAAAA
RNA 2: AGCACCGUAAAGACGC
The term Kd denotes the free concentration of one partner at which half of the binding sites on the other are occupied at equilibrium, for simple one-to-one binding. With B1, the Kd is 2600 ± 1000 nM in the data set with Mtr4 R1030A, 2000 ± 600 nM with Mtr4 E1033A and 2800 ± 900 nM in the data set with Mtr4 WT.
